Reference: PMC11065122 (Journal of the American Chemical Society, 2023)

Tests used:
MP^A E9ADPr1 = assay: fluorescence polarisation
MP^(A (E9D)) D9ADPr1 = assay: fluorescence polarisation
MP^A R5ADPr1 = assay: fluorescence polarisation
MP^A S7ADPr1 = assay: fluorescence polarisation
PARP14^cat = assay: PARP14cat mono-ADP-ribosylation of substrate peptides, RP-HPLC/MS; format: biochemical; details: after PARP14^cat reaction condition optimization, NAD+, listed as MP^B

Substance | Kd (MP^A E9ADPr1) [nM] | Kd (MP^(A (E9D)) D9ADPr1) [nM] | Kd (MP^A R5ADPr1) [nM] | Kd (MP^A S7ADPr1) [nM] | conversion to mono-ADP-ribosylated product (ADPr1) (PARP14^cat)
pan-ADP-ribose detection reagent (an Af1521 macrodomain-Fc region fusion) (Fc fusion) | 732 | 1810 | 15.6 | 1170 | –
GWTARKSAEVGAGK [MP^A] | – | – | – | – | no activity was detected
